Key:
[1] = target: T1, Nox2 oxidase (COS-Nox2 lysate: Nox2, p22phox, p47phox, p67phox) (Homo sapiens, UniProt P14598); test: Cell-free SOD-inhibitable cytochrome c reduction assay, O2- production in COS-Nox2 lysates; format: biochemical
T1 construct: host or cells: COS 7 cells, stably transfected; cell lysate used
T1 sequence (P14598 1-390): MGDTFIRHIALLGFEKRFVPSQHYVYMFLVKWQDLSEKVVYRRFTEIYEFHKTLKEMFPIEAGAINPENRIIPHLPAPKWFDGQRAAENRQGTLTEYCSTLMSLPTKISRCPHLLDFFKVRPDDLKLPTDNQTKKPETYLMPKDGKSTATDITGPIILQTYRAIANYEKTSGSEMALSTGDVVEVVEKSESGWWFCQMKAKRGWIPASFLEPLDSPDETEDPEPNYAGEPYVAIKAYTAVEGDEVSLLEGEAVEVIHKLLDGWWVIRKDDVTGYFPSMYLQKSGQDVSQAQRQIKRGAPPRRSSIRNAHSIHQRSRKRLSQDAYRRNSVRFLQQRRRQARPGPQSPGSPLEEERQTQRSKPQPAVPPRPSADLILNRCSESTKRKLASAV
Method: (§1) To test this hypothesis, the inhibitory activity of Nox2ds was assessed in cell-free assays using reconstituted systems expressing either Nox1, 2 or 4 oxidase. Nox 2 oxidase was recapitulated by stably transfecting COS 7 cells with Nox2, p22phox, p47phox, and p67phox (aka COS-Nox2). Nox1 oxidase was obtained by transfecting COS 7 cells with Nox1, p22phox, NOXO1 and NOXA1 (COS-Nox1), and Nox 4 oxidase was regenerated by transfection of COS 7 cells with Nox4 and p22phox. […] Our new data support selectivity of Nox2ds peptide in differentiating the contribution of Nox2 vs. Nox1 and Nox4 NADPH oxidase and its potential clinical use in ameliorating cardiopulmonary diseases.
COS-Nox2: COS 7 cells transfected with p22^phox, Nox2, p47^phox and p67^phox (M. Dinauer, Indiana University). (Price M O, McPhail L C, Lambeth J D, Han C H, Knaus U G, Dinauer M C. Blood. 2002 Apr. 15; 99(8):2653-61.)
Superoxide (O2^−) production was measured in COS-Nox1 and COS-Nox2 lysates by determining the rate of O2^− dismutase (SOD) inhibitable cytochrome c reduction and by electron paramagnetic resonance (EPR).
COS-Nox2, COS-Nox1/NOXO1/NOXA1, and COS-22 cells were suspended to a concentration of 5×10^7 cells/ml in ice-cold disruption buffer (8 mM potassium, sodium phosphate buffer, pH 7.0, 131 mM NaCl, 340 mM sucrose, 2 mM NaN3, 5 mM MgCl2, 1 mM EGTA, 1 mM EDTA, and protease inhibitor cocktail). The cells were lysed by five freeze/thaw cycles and passed through a 30-gauge needle five times to further lyse the cells. Cell disruption was confirmed by phase-contrast microscopy. The cell lysate was centrifuged at 1000 g for 10 min at 4° C. to remove unbroken cells, nuclei, and debris. Throughout all these procedures, extreme care was taken to maintain the lysate at a temperature close to 0° C. Superoxide production was calculated from the initial linear rate (over 10 min) of SOD-inhibitable cytochrome c reduction quantified at 550 nm using the extinction coefficient of 21.1 mM-1 cm-1 (Biotek Synergy 4 hybrid multimode microplate reader). The oxidase assay buffer consisted of 65 mM sodium phosphate buffer (pH 7.0), 1 mM EGTA, 10 μM FAD, 1 mM MgCl2, 2 mM NaN3, and 0.2 mM cytochrome c. The components of the cell-free system were added in the following order: oxidase assay buffer, cell lysate (5×10^5 cell equivalents/well), and Nox2ds/Scrmb Nox2ds peptides at a final concentration of 0.1, 0.3, 1.0, 3.0, and 10 μM. The plates were placed on an orbital shaker to mix contents for 5 min at 120 movements/min at room temperature. LIDS, an established lipid activator of phagocyte cell-free systems, was added at a concentration of 130 μM, and O2^− production was initiated by the addition of 180 μM NADPH. The concentration of Nox2ds peptide that caused 50% inhibition of O2^− production (IC50) in COS-Nox2 cell lysates was calculated by Prism 5 (GraphPad Software, La Jolla, Calif., USA).
Cytochrome C Assay. FIG. 3A. Rate of O2^− production in COS-Nox2 lysates pretreated with Nox2ds or scrambled control (Scrmb Nox2ds). O2^− production was initiated by the addition of NADPH and measured by the SOD-inhibitable cytochrome c reduction for 10 min.

[2] = target: T2, Nox2 oxidase (COS-Nox2 lysate) (Homo sapiens, UniProt P14598); test: EPR with spin probe CMH, O2- production in COS-Nox2 lysates; format: biochemical; conditions: 10 μM peptide, vehicle 36330±2658
T2 construct: host or cells: COS 7 cells, stably transfected; cell lysate used
T2 sequence (P14598 1-390): T1 sequence (P14598 1-390)
Method: as §1
The spin probe 1-hydroxy-3-methoxycarbonyl-2,2,5,5-tetramethylpyrrolidine hydrochloride (CMH; Alexis Corp., San Diego, Calif., USA) was used to examine O2^− production in COS-Nox2 cell lysates using a Bruker eScan table-top EPR spectrometer (Bruker Biospin, USA). Superoxide production was measured in oxidase assay buffer (65 mM sodium phosphate buffer, pH 7.0, 1 mM EGTA, 10 μM FAD, 1 mM MgCl2, 2 mM NaN3) supplemented with 50 μM CMH. […] Analyses of the EPR spectra peak heights were used to quantify the amount of O2^− produced by the lysates and were compared with buffer-only control spectra or spectra in the presence of 10 μM Nox2ds, 10 μM Scrmb Nox2ds, or 150 U/ml SOD. […]

- inhibition of Nox2-oxidase O2- production (in words) ([1]; cytochrome c assay): did not inhibit
- CM radical intensity (EPR, O2- production) [2]: 34142±6075
Sequence: CLRVTRQSR (Scrambled Nox2ds) [scrmb Nox2ds, reference compound]
- rate of O2- generation, SOD-inhibitable reduction of cytochrome c ([1]; 10 μM peptide, 0 μM control 1.33±0.1): 1.44±0.2 nmol O2^−/min/10^7 lysate-cell equivalents

— patent publication US9585933B2, “Therapeutic use of peptide inhibitors of NADPH oxidase; aerosolization as a delivery mechanism” (University of Pittsburgh—Of the Commonwealth System of …, priority 2011, dated 2017)
